Here are results for 4 molecules from patent US10184137B2, “Method of producing isoprene monomer” (AJINOMOTO CO., INC., priority 2014, dated 2019).

“And” between values parts separate entries of the source, which are not always exact repeats. Equal values may be shown once. Where a name gives a salt, the structure may show the parent alone.

Holding throughout (format): biochemical
Data set [1] concerns the target Corynebacterium variabile mevalonate kinase (cva), wild type, SEQ ID NO:3, N-terminal His-tag (Corynebacterium variabile, UniProt A0A0X2NLH5). Kind of data set: Inhibition of cva-derived mevalonate kinase by DMAPP, GPP, FPP or DPM. On the procedure: (§1) Km value was calculated by Lineweaver-Burk plot.
(§2) Since GPP and FPP solutions contain methanol, methanol which was needed to keep the same methanol level at the addition to the reaction system was added to the reaction solution, which was designated as control.
(§3) Effect of 1 mM diphosphomevalonate (DPM) on each enzyme was also studied.

For data set [2], the target named is T1, Methanosaeta concilii mevalonate kinase (mcl), wild type, SEQ ID NO:6, N-terminal His-tag (Methanothrix soehngenii, UniProt F4BZB3).
T1 sequence (F4BZB3 1-317): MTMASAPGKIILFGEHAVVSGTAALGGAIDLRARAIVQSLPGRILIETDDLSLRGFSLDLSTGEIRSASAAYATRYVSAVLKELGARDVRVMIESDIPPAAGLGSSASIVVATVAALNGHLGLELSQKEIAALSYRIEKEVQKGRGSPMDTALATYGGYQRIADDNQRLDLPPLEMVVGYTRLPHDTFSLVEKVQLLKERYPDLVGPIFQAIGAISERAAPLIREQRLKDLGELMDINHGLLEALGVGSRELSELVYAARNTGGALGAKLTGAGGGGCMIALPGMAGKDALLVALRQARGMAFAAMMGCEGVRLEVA
Kind of data set: Inhibition of mcl-derived mevalonate kinase by DMAPP, GPP, FPP or DPM. The conditions noted are these: mcl. On the procedure: as §1, §2, §3

Data set [3] concerns the target T2, Methanosarcina mazei mevalonate kinase (mma), wild type, SEQ ID NO:12, N-terminal His-tag (Methanosarcina mazei, UniProt Q8PW39).
T2 sequence (Q8PW39 1-301): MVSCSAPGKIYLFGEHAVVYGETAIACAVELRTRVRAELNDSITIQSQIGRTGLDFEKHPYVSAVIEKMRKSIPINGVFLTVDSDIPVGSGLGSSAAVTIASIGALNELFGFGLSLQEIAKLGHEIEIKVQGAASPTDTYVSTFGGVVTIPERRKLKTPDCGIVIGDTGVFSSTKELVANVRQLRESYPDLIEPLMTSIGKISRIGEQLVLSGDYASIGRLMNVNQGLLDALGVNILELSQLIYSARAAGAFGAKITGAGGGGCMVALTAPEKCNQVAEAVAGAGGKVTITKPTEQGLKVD
The data set is described as follows: Inhibition of mma-derived mevalonate kinase by DMAPP, GPP, FPP or DPM. On the procedure:
as §1, §2, §3

Data set [4] concerns the target Methanocella paludicola mevalonate kinase (mpd), wild type, SEQ ID NO:1, N-terminal His-tag (Methanocella paludicola, UniProt D1YZ39). The data set is described as follows: Inhibition of mpd-derived mevalonate kinase by DMAPP, GPP, FPP or DPM. On the procedure:
as §1, §2, §3

The target of data set [5] is Nitrosopumilus maritimus mevalonate kinase (nmr), wild type, SEQ ID NO:9, N-terminal His-tag (Nitrosopumilus maritimus, UniProt A9A427). Kind of data set: Inhibition of nmr-derived mevalonate kinase by DMAPP, GPP, FPP or DPM. On the procedure: as §1, §2, §3
The subject of data set [6] is mevalonate kinase. The data set is described as follows: Expression analysis and activity confirmation of His-tagged mevalonate kinases from pET-21a(+) and pET-28b(+). The conditions noted are these: His-spinTrap eluate after dialysis, 10 μl enzyme solution. Here is the method: Each obtained plasmid was used for transformation of E. coli BL21(DE3). […] When OD600 reached approximately 0.5, IPTG was added to the solution to final concentration of 1 mM. It was then cultured overnight at 20° C. Harvested cells were suspended in the buffer solution consisting of 50 mM sodium phosphate, 0.3 M NaCl and 20 mM Imidazol. Then the cells were disrupted with an ultrasonic disruptor (TOMY: UD-201, output level=3.5). After centrifugation (20,000×g, 20 min), disrupted cells were adsorbed to His-spinTrap (GE Healthcare). After washing with the same buffer solution, protein was eluted with the buffer solution consisting of 50 mM sodium phosphate, 0.3 M NaCl and 0.5 M imidazole (pH7.5). Eluate was dialyzed overnight at 4° C. with the external solution composed of 20 mM Tris-HCl (pH7.5) and 50 mM NaCl. Then, enzyme activity of each eluate in the internal dialysis solution was measured.
Activity of the internal dialysate (about 0.2 ml each) was measured with the 10 μl of enzyme solution (Table 8). Enzyme expression level was compared on activity basis between pET-21a(+) and pET-28b(+). […] It is inferred that expression level is higher in pET-28b(+). Therefore, purified enzyme expressed in pET-28b(+) was used in the further examinations.
Values were presented by decrease in absorbance per unit time per 10 μl in the enzyme reaction measurement system (dABS/min/10 μl).
(§4) Decrease in absorbance at 340 nm at 30° C. was measured to determine the enzyme activity. JASCO Corporation's spectrophotometer (V-650) was used in this study. Millimolar extinction coefficient of NADH used in this study was 6.22 mM^−1 cm^−1. […] Km value was calculated by Lineweaver-Burk plot.

Data set [7] concerns mevalonate kinase. The data set is described as follows: Measurement of activity and Km value of purified mevalonate kinase (PK/LDH coupled, 340 nm). The conditions noted are these: 10 μl enzyme in 1 ml, replicate values; for dABS/min at ATP 0.04 mM / dABS/min at ATP 0.2 mM / dABS/min at ATP 1 mM: potassium mevalonate 5 mM; for dABS/min at mev 0.04 mM: potassium mevalonate 0.04 mM; for dABS/min at mev 0.2 mM: potassium mevalonate 0.2 mM. On the procedure: Each obtained plasmid was used for transformation of E. coli BL21(DE3). […] When OD600 reached approximately 0.5, 0.1 mM IPTG (for cva, mma, nmr, and sce) or 1 mM (for mcl and mpd) of IPTG was added, and then the mixture was kept at 20° C. overnight to induce the target protein. Harvested cells were suspended in buffer solution A (50 mM sodium phosphate, 0.3 M NaCl and 20 mM Imidazol), and then the cells were disrupted with an ultrasonic disruptor (TOMY: UD-201). […] After centrifugation (28,000×g, 30 min), the supernatant was adsorbed onto His-Trap HP (GE Healthcare) to elute the target protein by linear concentration gradient of Imidazol (final concentration 0.5 M). Obtained protein was dialyzed by using an external solution composed of 20 mM Tris-HCl (pH 8.0) containing 1 mM DTT and 50 mM NaCl. Dialyzed protein was designated as purified enzyme. Protein quantity was measured with Bio-RAD protein assay kit and BSA standard condition.
as §4
Measured activity of each enzyme (JABS/min) was presented on Table 9 for the calculation of apparent Km value (Km app.) of each enzyme. Table 10 presents Km app., Vmax, molecular weight of the enzyme protein, protein concentration in the enzyme solution and calculated kcat.
Activity was indicated by dABS/min when 10 μl of each enzyme was added to 1 ml of reaction solution.

Data set [8] has as its system mevalonate kinase. The data set is described as follows: Inhibition of each mevalonate kinase by DMAPP, GPP, FPP or DPM. On the procedure: as §2
Respective effect of the added 5 mM DMAPP, 0.1 mM GPP, and 0.1 mM FPP on the activity of each enzyme was measured. […] Contrarily, mcl-derived enzyme was activated by 5 mM DMAPP and its activity increased by 20% from that of the control.
Activity when 10 μl of each enzyme was added to 1 ml of the reaction system was represented by dABS/min
as §3

Data set [9] deals with mevalonate kinase. The data set is described as follows: Examination of product inhibition on each mevalonate kinase (absorbance at 386 nm, PMK addition). The following applies: in words; for course of decrease in absorbance at 386 nm until PMK addition: 1 mM mevalonate as substrate. On the procedure: When decrease in absorbance stopped, purified PMK was added to measure further decrease in absorbance at 386 nm.
FIG. 18 presents the SDS-PAGE profile of the purified PMK. […] Then, absorbance decreased further and finally absorbance at 386 nm decreased to 0.3 in all reaction systems. Therefore, it is inferred that mevalonate is converted into diphosphomevalonate via phosphomevalonate by adding PMK to each MVK.

The mark [10] stands for this setting: Table 11 control without terpenyl diphosphate (methanol added).

Sequence of Corynebacterium variabile mevalonate kinase (cva), wild type, SEQ ID NO:3, N-terminal His-tag (A0A0X2NLH5 entry or part of it): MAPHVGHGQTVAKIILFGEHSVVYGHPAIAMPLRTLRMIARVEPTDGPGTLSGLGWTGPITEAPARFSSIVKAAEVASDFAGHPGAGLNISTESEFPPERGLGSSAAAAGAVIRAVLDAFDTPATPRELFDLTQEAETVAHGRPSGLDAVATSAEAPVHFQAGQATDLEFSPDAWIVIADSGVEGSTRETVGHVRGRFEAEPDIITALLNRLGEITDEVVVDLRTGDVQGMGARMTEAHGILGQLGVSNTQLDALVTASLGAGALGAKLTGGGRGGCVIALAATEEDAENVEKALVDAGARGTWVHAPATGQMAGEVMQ
Sequence of Methanocella paludicola mevalonate kinase (mpd), wild type, SEQ ID NO:1, N-terminal His-tag (D1YZ39 entry or part of it): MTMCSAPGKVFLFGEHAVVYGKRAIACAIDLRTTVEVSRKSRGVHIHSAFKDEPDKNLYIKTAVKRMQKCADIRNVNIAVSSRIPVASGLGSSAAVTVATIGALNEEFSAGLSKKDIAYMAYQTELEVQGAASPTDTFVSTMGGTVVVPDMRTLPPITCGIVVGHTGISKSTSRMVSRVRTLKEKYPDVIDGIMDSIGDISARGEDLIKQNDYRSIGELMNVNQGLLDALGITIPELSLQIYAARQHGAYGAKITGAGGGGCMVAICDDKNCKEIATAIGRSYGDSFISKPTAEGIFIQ

As to `CC(C)=CCC/C(C)=C/COP(=O)(O)OP(=O)(O)O` [GPP, geranyl phyrophosphate ammonium salt], the “Enzyme activity with 0.1 mM GPP” value is recorded as 0.07532 dABS/min in data set [1] (0.1 mM GPP, control 0.08338); 0.1538 dABS/min in data set [2] (0.1 mM GPP, control 0.1482); 0.2009 dABS/min in [3] (0.1 mM GPP, control 0.21); 0.1589 dABS/min in [4] (0.1 mM GPP, control 0.15734); 0.2427 dABS/min in [5] (0.1 mM GPP, control 0.2438).

For the molecule `CC(C)=CCC/C(C)=C/CC/C(C)=C/COP(=O)(O)OP(=O)(O)O` [FPP, farnesyl pyrophosphate ammonium salt], the “Inhibition by FPP” value in data set [1] (0.1 mM FPP) was “inhibited”; in [2] (0.1 mM FPP) it was “no other enzymes were inhibited strongly”; in data set [3] (0.1 mM FPP), “no other enzymes were inhibited strongly”; in [4] (0.1 mM FPP) it was “no other enzymes were inhibited strongly”; in data set [5] (0.1 mM FPP), “no other enzymes were inhibited strongly”. Besides, the “Enzyme activity with 0.1 mM FPP” value in data set [1] (0.1 mM FPP, control 0.08338) stood at 0.04775 dABS/min; in data set [2] (0.1 mM FPP, control 0.1482) it was 0.1562 dABS/min; in data set [3] (0.1 mM FPP, control 0.21), 0.2059 dABS/min; in [4] (0.1 mM FPP, control 0.15734), 0.1594 dABS/min; in data set [5] (0.1 mM FPP, control 0.2438), 0.224 dABS/min.

B1: mma: known mevalonate kinase derived from Methanosarcina mazei (SEQ ID NO:12), His-tagged purified enzyme (protein, listed as Methanosarcina mazei)
chain: MVSCSAPGKIYLFGEHAVVYGETAIACAVELRTRVRAELNDSITIQSQIGRTGLDFEKHPYVSAVIEKMRKSIPINGVFLTVDSDIPVGSGLGSSAAVTIASIGALNELFGFGLSLQEIAKLGHEIEIKVQGAASPTDTYVSTFGGVVTIPERRKLKTPDCGIVIGDTGVFSSTKELVANVRQLRESYPDLIEPLMTSIGKISRIGEQLVLSGDYASIGRLMNVNQGLLDALGVNILELSQLIYSARAAGAFGAKITGAGGGGCMVALTAPEKCNQVAEAVAGAGGKVTITKPTEQGLKVD
modifications: His-tag
For the molecule B1, in the data set on mevalonate kinase [6], the “enzyme activity, pET21 system (C terminal Tag)” value amounted to 0.225 dABS/min/10 μl and the “enzyme activity, pET28 system (N terminal Tag)” value is given as 0.231 dABS/min/10 μl. In the data set on mevalonate kinase [7], the “dABS/min at ATP 0.04 mM” value was 0.01326 dABS/min and 0.01358 dABS/min and 0.01398 dABS/min; the “dABS/min at ATP 0.2 mM” value is 0.05835 dABS/min and 0.05848 dABS/min and 0.05859 dABS/min; the “dABS/min at ATP 1 mM” value is 0.1533 dABS/min (2×) and 0.1528 dABS/min. In the data set on mevalonate kinase [7] (potassium mevalonate 0.01 mM, ATP 5 mM), the “dABS/min at mev 0.01 mM” value is 0.02921 dABS/min and 0.02805 dABS/min and 0.02788 dABS/min. Besides, in the data set on mevalonate kinase [7] (ATP 5 mM), the “dABS/min at mev 0.04 mM” value was 0.08012 dABS/min and 0.08006 dABS/min and 0.08009 dABS/min; the “dABS/min at mev 0.2 mM” value was 0.1761 dABS/min and 0.1758 dABS/min and 0.176 dABS/min. Further, the “enzyme activity, Control” value with mevalonate kinase [8] (setting [10]) is 0.21 dABS/min. Further, the “enzyme activity, Control” value in the data set with mevalonate kinase [8] (Table 12 control without DPM) came to 0.1604 dABS/min. Also, the “course of decrease in absorbance at 386 nm until PMK addition” value with mevalonate kinase [9] is reported as “almost linear decrease in absorbance”.

B2: nmr: mevalonate kinase derived from Nitrosopumilus maritimus (SEQ ID NO:9), His-tagged purified enzyme (protein, listed as Nitrosopumilus maritimus)
chain: MKSKASAPGKVILFGEHFVVYGVKAILCAINKRIAVTAEKIDERKISIKSNIGHLELEPNKPISEINSPLKPFYYLANKIIQDKNFGIKIDVESEIPLGVGLGSSSACCVAGAAAISNLFENNSKEEILKLAIEAEKTIFQNTSGADCTVCTFGGLMEYDKENGFSKIESEPNFHLVIANSNVEHSTESVVAGVRKFKKNNEAEFSKLCKDESHLIENVLELLKENNIRELGERVIKNQEYLERIGISNAKLREMIQTGQNSSFGAKITGAGGGGCIFALTDESNLENTIKEFKEKNHECFSVKIDFKGLDTF
modifications: His-tag
With B2, in the data set with mevalonate kinase [6], the “enzyme activity, pET21 system (C terminal Tag)” value is 0.137 dABS/min/10 μl and the “enzyme activity, pET28 system (N terminal Tag)” value was determined as 0.247 dABS/min/10 μl. Also, in the data set with mevalonate kinase [7], the “dABS/min at ATP 0.04 mM” value is 0.007781 dABS/min and 0.00767 dABS/min and 0.007932 dABS/min; the “dABS/min at ATP 0.2 mM” value was 0.03637 dABS/min and 0.03629 dABS/min and 0.03625 dABS/min; the “dABS/min at ATP 1 mM” value is 0.1089 dABS/min and 0.1084 dABS/min and 0.1085 dABS/min. Moreover, in the data set on mevalonate kinase [7] (ATP 5 mM), the “dABS/min at mev 0.04 mM” value is 0.01691 dABS/min and 0.01687 dABS/min and 0.0168 dABS/min; the “dABS/min at mev 0.2 mM” value is 0.06788 dABS/min and 0.06784 dABS/min and 0.06777 dABS/min. The “dABS/min at mev 1 mM” value with mevalonate kinase [7] (potassium mevalonate 1 mM, ATP 5 mM) is 0.1521 dABS/min and 0.1522 dABS/min and 0.153 dABS/min. Also, in the data set on mevalonate kinase [8] (setting [10]), the “enzyme activity, Control” value amounted to 0.2438 dABS/min. Also, the “enzyme activity, Control” value in the data set with mevalonate kinase [8] (Table 12 control without DPM) is given as 0.2064 dABS/min. Further, in the data set on mevalonate kinase [9], the “course of decrease in absorbance at 386 nm until PMK addition” value is on record as “decrease in the rate of reaction associated with the progression of reaction” and the DPM-induced inhibition entry was “not observed”.
